Target: the molecule itself
Assay: gel filtration (Superose 200); dynamic light scattering with MgCl2 also gave a monodisperse, dimeric sample; homodimer self-association

B1: recombinant S. aureus thymidylate kinase (with polyhistidine [his6] sequence tag) (enzyme)
chain: MGSAFITFEGPEGSGKTTVINEVYHRLVKDYDVIMTREPGGVPTGEEIRKIVLEGNDMDIRTEAMLFAASRREHLVLKVIPALKEGKVVLCDRYIDSSLAYQGYARGIGVEEVRALNEFAINGLYPDLTIYLNVSAEVGRERIIKNSRDQNRLDQEDLKFHEKVIEGYQEIIHNESQRFKSVNADQPLENVVEDTYQTIIKYLEKIRSHHHHHH
notes: Expressed in E. coli with a His6 tag; The crystals used for the structure were of the selenomethionine analogue (methionines replaced by selenomethionine); Gel filtration and light scattering appear to have used the native protein; also called S. aureus TMK; T. kinase
Question: Does B1 bind?
Answer: binds

From US20040171050A1 (PHARMACIA AND UPJOHN, published 2004)
